In patent US20180360932A1 (OPKO BIOLOGICS, published 2018):

Experiments:
[1] = molecular target: MOD-5014 (FVIIa-CTP3, activated Factor VII-CTP-CTP-CTP) (human) (UniProt P08709); experiment: cell-based or functional assay
[2] = molecular target: Tissue factor (TF), P13726; experiment: cell-based or functional assay
Chain of Tissue factor (TF), P13726 (P13726 33-295): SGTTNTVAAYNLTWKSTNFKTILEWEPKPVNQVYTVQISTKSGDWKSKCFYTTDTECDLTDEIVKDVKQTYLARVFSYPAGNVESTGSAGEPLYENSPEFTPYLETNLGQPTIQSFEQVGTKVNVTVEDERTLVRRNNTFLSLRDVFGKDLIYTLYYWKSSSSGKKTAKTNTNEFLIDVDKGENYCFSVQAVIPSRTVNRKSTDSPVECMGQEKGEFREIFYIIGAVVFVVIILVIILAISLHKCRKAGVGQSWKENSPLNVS

Tissue factor pathway inhibitor (TFPI) (from UniProt P10646 29-304)
sensitivity of FVIIa/TF generation of FXa to TFPI inhibition, relative to MOD-5000 [1]: 124%

B1: MOD-5014 (FVIIa-CTP3; activated Factor VII-CTP-CTP-CTP), P08709 61-212 (enzyme)
chain 1: ANAFLEELRPGSLERECKEEQCSFEEAREIFKDAERTKLFWISYSDGDQCASSPCQNGGSCKDQLQSYICFCLPAFEGRNCETHKDDQLICVNENGGCEQYCSDHTGTKRSCRCHEGYSLLADGVSCTPTVEYPCGKIPILEKRNASKPQGR
chain 2: IVGGKVCPKGECPWQVLLLVNGAQLCGGTLINTIWVVSAAHCFDKIKNWRNLIAVLGEHDLSEHDGDEQSRRVAQVIIPSTYVPGTTNHDIALLRLHQPVVLTDHVVPLCLPERTFSERTLAFVRFSLVSGWGQLLDRGATALELMVLNVPRLMTQDCLQQSRKVGDSPNITEYMFCAGYSDGSKDSCKGDSGGPHATHYRGTWYLTGIVSWGQGCATVGHFGVYTRVSQYIEWLQKLMRSEPRPGVLLRAPFPSSSSKAPPPSLPSPSRLPGPSDTPILPQSSSSKAPPPSLPSPSRLPGPSDTPILPQSSSSKAPPPSLPSPSRLPGPSDTPILPQ
modifications: here or on the partner: CTP units may be O-glycosylated (sites not given); gamma-carboxyglutamic acid (Gla) residues in the N-terminal region (positions not given)
ETP (TG; MOD-5014 1.25 ug/ml + TF 0.5 pM; run 1) [2]: 264
ETP (TG; MOD-5014 1.25 ug/ml + TF 1 pM; run 1) [2]: 484
ETP (TG; MOD-5014 1.25 ug/ml + TF 2.5 pM; run 1) [2]: 1120
ETP (TG; MOD-5014 1.25 ug/ml + TF 5 pM; run 1) [2]: 1600
ETP (TG; MOD-5014 2.5 ug/ml + TF 0.5 pM; run 1) [2]: 245
ETP (TG; MOD-5014 2.5 ug/ml + TF 0.5 pM; run 2) [2]: 317
ETP (TG; MOD-5014 2.5 ug/ml + TF 1 pM; run 1) [2]: 448
ETP (TG; MOD-5014 2.5 ug/ml + TF 1 pM; run 2) [2]: 760
ETP (TG; MOD-5014 2.5 ug/ml + TF 2.5 pM; run 1) [2]: 1030
ETP (TG; MOD-5014 2.5 ug/ml + TF 2.5 pM; run 2) [2]: 1110
ETP (TG; MOD-5014 2.5 ug/ml + TF 5 pM; run 1) [2]: 1550
ETP (TG; MOD-5014 2.5 ug/ml + TF 5 pM; run 2) [2]: 1600
ETP (TG; MOD-5014 5 ug/ml + TF 0.5 pM; run 1) [2]: 344
ETP (TG; MOD-5014 5 ug/ml + TF 1 pM; run 1) [2]: 490
ETP (TG; MOD-5014 5 ug/ml + TF 2.5 pM; run 1) [2]: 982
ETP (TG; MOD-5014 5 ug/ml + TF 5 pM; run 1) [2]: 1510
ETP (TG; MOD-5014 10 ug/ml + TF 0.5 pM; run 2) [2]: 460
ETP (TG; MOD-5014 10 ug/ml + TF 1 pM; run 2) [2]: 754
ETP (TG; MOD-5014 10 ug/ml + TF 2.5 pM; run 2) [2]: 1060
ETP (TG; MOD-5014 10 ug/ml + TF 5 pM; run 2) [2]: 1600
ETP; thrombin generation in severe hemophilia A pooled plasma, MOD-5014 5 ug/kg (FIG. 83), TF 0.5 pM, run #2 [2]: 354
ETP; thrombin generation in severe hemophilia A pooled plasma, MOD-5014 5 ug/kg (FIG. 83), TF 1 pM, run #2 [2]: 754
ETP; thrombin generation in severe hemophilia A pooled plasma, MOD-5014 5 ug/kg (FIG. 83), TF 2.5 pM, run #2 [2]: 1010
ETP; thrombin generation in severe hemophilia A pooled plasma, MOD-5014 5 ug/kg (FIG. 83), TF 5 pM, run #2 [2]: 1530
Lag time (TG; MOD-5014 1.25 ug/ml + TF 0.5 pM; run 1) [2]: 4.67 min
Lag time (TG; MOD-5014 1.25 ug/ml + TF 1 pM; run 1) [2]: 2.67 min
Lag time (TG; MOD-5014 1.25 ug/ml + TF 2.5 pM; run 1) [2]: 2.33 min
Lag time (TG; MOD-5014 1.25 ug/ml + TF 5 pM; run 1) [2]: 1.33 min
Lag time (TG; MOD-5014 2.5 ug/ml + TF 0.5 pM; run 1) [2]: 6.67 min
Lag time (TG; MOD-5014 2.5 ug/ml + TF 1 pM; run 1) [2]: 3 min
Lag time (TG; MOD-5014 2.5 ug/ml + TF 1 pM; run 2) [2]: 3.33 min
Lag time (TG; MOD-5014 2.5 ug/ml + TF 2.5 pM; run 1) [2]: 2.63 min
Lag time (TG; MOD-5014 2.5 ug/ml + TF 2.5 pM; run 2) [2]: 2.67 min
Lag time (TG; MOD-5014 2.5 ug/ml + TF 5 pM; run 1) [2]: 3.67 min
Lag time (TG; MOD-5014 2.5 ug/ml + TF 5 pM; run 2) [2]: 1.67 min
Lag time (TG; MOD-5014 5 ug/ml + TF 0.5 pM; run 1) [2]: 5.67 min
Lag time (TG; MOD-5014 5 ug/ml + TF 1 pM; run 1) [2]: 3 min
Lag time (TG; MOD-5014 5 ug/ml + TF 2.5 pM; run 1) [2]: 3 min
Lag time (TG; MOD-5014 5 ug/ml + TF 5 pM; run 1) [2]: 1.67 min
Lag time (TG; MOD-5014 10 ug/ml + TF 0.5 pM; run 2) [2]: 8.67 min
Lag time (TG; MOD-5014 10 ug/ml + TF 2.5 pM; run 2) [2]: 3 min
Lag time (TG; MOD-5014 10 ug/ml + TF 5 pM; run 2) [2]: 1.67 min
Lag time; thrombin generation in severe hemophilia A pooled plasma, MOD-5014 5 ug/kg (FIG. 83), TF 0.5 pM, run #2 [2]: 7
Lag time; thrombin generation in severe hemophilia A pooled plasma, MOD-5014 5 ug/kg (FIG. 83), TF 1 pM, run #2 [2]: 3.67
Lag time; thrombin generation in severe hemophilia A pooled plasma, MOD-5014 5 ug/kg (FIG. 83), TF 2.5 pM, run #2 [2]: 2.67
Lag time; thrombin generation in severe hemophilia A pooled plasma, MOD-5014 5 ug/kg (FIG. 83), TF 5 pM, run #2 [2]: 2
Peak (TG; MOD-5014 1.25 ug/ml + TF 0.5 pM; run 1) [2]: 9.04
Peak (TG; MOD-5014 1.25 ug/ml + TF 1 pM; run 1) [2]: 27.4
Peak (TG; MOD-5014 1.25 ug/ml + TF 2.5 pM; run 1) [2]: 99.1
Peak (TG; MOD-5014 1.25 ug/ml + TF 5 pM; run 1) [2]: 231
Peak (TG; MOD-5014 2.5 ug/ml + TF 0.5 pM; run 1) [2]: 10.3
Peak (TG; MOD-5014 2.5 ug/ml + TF 0.5 pM; run 2) [2]: 11.2
Peak (TG; MOD-5014 2.5 ug/ml + TF 1 pM; run 1) [2]: 22.6
Peak (TG; MOD-5014 2.5 ug/ml + TF 1 pM; run 2) [2]: 30.4
Peak (TG; MOD-5014 2.5 ug/ml + TF 2.5 pM; run 1) [2]: 93.2
Peak (TG; MOD-5014 2.5 ug/ml + TF 2.5 pM; run 2) [2]: 105
Peak (TG; MOD-5014 2.5 ug/ml + TF 5 pM; run 1) [2]: 241
Peak (TG; MOD-5014 2.5 ug/ml + TF 5 pM; run 2) [2]: 245
Peak (TG; MOD-5014 5 ug/ml + TF 0.5 pM; run 1) [2]: 13.2
Peak (TG; MOD-5014 5 ug/ml + TF 1 pM; run 1) [2]: 28.3
Peak (TG; MOD-5014 5 ug/ml + TF 2.5 pM; run 1) [2]: 94.2
Peak (TG; MOD-5014 5 ug/ml + TF 5 pM; run 1) [2]: 261
Peak (TG; MOD-5014 10 ug/ml + TF 1 pM; run 2) [2]: 32.2
Peak (TG; MOD-5014 10 ug/ml + TF 2.5 pM; run 2) [2]: 92.2
Peak (TG; MOD-5014 10 ug/ml + TF 5 pM; run 2) [2]: 236
Peak; thrombin generation in severe hemophilia A pooled plasma, MOD-5014 5 ug/kg (FIG. 83), TF 0.5 pM, run #2 [2]: 14.3
Peak; thrombin generation in severe hemophilia A pooled plasma, MOD-5014 5 ug/kg (FIG. 83), TF 1 pM, run #2 [2]: 28.6
Peak; thrombin generation in severe hemophilia A pooled plasma, MOD-5014 5 ug/kg (FIG. 83), TF 2.5 pM, run #2 [2]: 104
Peak; thrombin generation in severe hemophilia A pooled plasma, MOD-5014 5 ug/kg (FIG. 83), TF 5 pM, run #2 [2]: 254
StartTail (TG; MOD-5014 1.25 ug/ml + TF 0.5 pM; run 1) [2]: 75
StartTail (TG; MOD-5014 1.25 ug/ml + TF 1 pM; run 1) [2]: 40
StartTail (TG; MOD-5014 1.25 ug/ml + TF 2.5 pM; run 1) [2]: 33
StartTail (TG; MOD-5014 1.25 ug/ml + TF 5 pM; run 1) [2]: 25
StartTail (TG; MOD-5014 2.5 ug/ml + TF 0.5 pM; run 1) [2]: 64
StartTail (TG; MOD-5014 2.5 ug/ml + TF 0.5 pM; run 2) [2]: 75
StartTail (TG; MOD-5014 2.5 ug/ml + TF 1 pM; run 1) [2]: 56
StartTail (TG; MOD-5014 2.5 ug/ml + TF 2.5 pM; run 1) [2]: 34
StartTail (TG; MOD-5014 2.5 ug/ml + TF 2.5 pM; run 2) [2]: 31
StartTail (TG; MOD-5014 2.5 ug/ml + TF 5 pM; run 1) [2]: 23
StartTail (TG; MOD-5014 2.5 ug/ml + TF 5 pM; run 2) [2]: 24
StartTail (TG; MOD-5014 5 ug/ml + TF 0.5 pM; run 1) [2]: 75
StartTail (TG; MOD-5014 5 ug/ml + TF 1 pM; run 1) [2]: 50
StartTail (TG; MOD-5014 5 ug/ml + TF 2.5 pM; run 1) [2]: 38
StartTail (TG; MOD-5014 10 ug/ml + TF 0.5 pM; run 2) [2]: 72
StartTail (TG; MOD-5014 10 ug/ml + TF 2.5 pM; run 2) [2]: 34
StartTail (TG; MOD-5014 10 ug/ml + TF 5 pM; run 2) [2]: 25
StartTail; thrombin generation in severe hemophilia A pooled plasma, MOD-5014 5 ug/kg (FIG. 83), TF 1 pM, run #2 [2]: 69
StartTail; thrombin generation in severe hemophilia A pooled plasma, MOD-5014 5 ug/kg (FIG. 83), TF 2.5 pM, run #2 [2]: 30
StartTail; thrombin generation in severe hemophilia A pooled plasma, MOD-5014 5 ug/kg (FIG. 83), TF 5 pM, run #2 [2]: 23
tt Peak (TG; MOD-5014 1.25 ug/ml + TF 0.5 pM; run 1) [2]: 22.3
tt Peak (TG; MOD-5014 1.25 ug/ml + TF 1 pM; run 1) [2]: 10.3
tt Peak (TG; MOD-5014 1.25 ug/ml + TF 2.5 pM; run 1) [2]: 8
tt Peak (TG; MOD-5014 1.25 ug/ml + TF 5 pM; run 1) [2]: 4.67
tt Peak (TG; MOD-5014 2.5 ug/ml + TF 0.5 pM; run 1) [2]: 22
tt Peak (TG; MOD-5014 2.5 ug/ml + TF 2.5 pM; run 1) [2]: 8.35
tt Peak (TG; MOD-5014 2.5 ug/ml + TF 2.5 pM; run 2) [2]: 8.33
tt Peak (TG; MOD-5014 2.5 ug/ml + TF 5 pM; run 2) [2]: 4.67
tt Peak (TG; MOD-5014 5 ug/ml + TF 0.5 pM; run 1) [2]: 21.3
tt Peak (TG; MOD-5014 5 ug/ml + TF 1 pM; run 1) [2]: 10.7
tt Peak (TG; MOD-5014 5 ug/ml + TF 2.5 pM; run 1) [2]: 8.33
tt Peak (TG; MOD-5014 5 ug/ml + TF 5 pM; run 1) [2]: 4.67
tt Peak (TG; MOD-5014 10 ug/ml + TF 1 pM; run 2) [2]: 33.7
tt Peak (TG; MOD-5014 10 ug/ml + TF 2.5 pM; run 2) [2]: 8.67
tt Peak; thrombin generation in severe hemophilia A pooled plasma, MOD-5014 5 ug/kg (FIG. 83), TF 0.5 pM, run #2 [2]: 21.3
tt Peak; thrombin generation in severe hemophilia A pooled plasma, MOD-5014 5 ug/kg (FIG. 83), TF 1 pM, run #2 [2]: 12.3
tt Peak; thrombin generation in severe hemophilia A pooled plasma, MOD-5014 5 ug/kg (FIG. 83), TF 2.5 pM, run #2 [2]: 7.67
tt Peak; thrombin generation in severe hemophilia A pooled plasma, MOD-5014 5 ug/kg (FIG. 83), TF 5 pM, run #2 [2]: 4.67
